In US20250277023A1 (published 2025):
Changes are numbered by the printed parent chain. Numbers in names are those of the source.

B1: R1084: PD-L1_VH (G44C)_IL15RA/PD-L1_VL(Q101C)_IL15/TIGIT-Fab (bispecific antibody)
chain 1: QVQLQESGPGLVKPSETLSLTCAVYGDSITSGYWNWIRKPPGKCLEYIGYISYTGSTYQNPSLKSRITMSRDTSKNQYYLKLSSVTAADTAVYYCARSRAWIRTYFDYWGQGTLVTVSSGGGGSGGGGSGGGGSGGGGSGITCPPPMSVEHADIWVKSYSLYSRERYICNSGFKRKAGTSSLTECVLNKATNVAHWTTPSLKCIRDPALVHQRPAPPSTVTTAGVTPQPESLSPSGKEPAASSPSSNNTAATTAAIVPGSQLMPSKSPSTGTTEISSHESSHGTPSQTTAKNWELTASASHQPPGVYPQGHSDTTEPKSSDKTHTCPPCPAPELLGGPSVFLFPPKPKDTLMISRTPEVTCVVVDVSHEDPEVKFNWYVDGVEVHNAKTKPREEQYNSTYRVVSVLTVLHQDWLNGKEYKCKVSNKALPAPIEKTISKAKGQPREPQVYTLPPSREEMTKNQVSLTCRVKGFYPSDIAVEWESNGQPENNYKTTPPVLKSDGSFFLASKLTVDKSRWQQGNVFSCSVMHEALHNHYTQKSLSLSPGK
chain 2: DIQMTQSPSSLSASVGDRVTITCSVSSSISSSNLHWYQQKPGKAPKPWIYGTSNLASGVPSRFSGSGSGTDYTLTISSLQPEDFATYYCQQWSSYPLTFGCGTKLEIKGGGGSGGGGSGGGGSGGGGSGNWVNVISDLKKIEDLIQSMHIDATLYTESDVHPSCKVTAMKCFLLELQVISLESGDASIHNTVQDLIILANNSLSSNGNVTESGCKECEELEEKNIKEFLQSFVHIVQMFINTS
heavy: QVQLVQSGAEVKKPGSSVKVSCKASGYSFTSYWMNWVRQAPGQGLEWIGMIRPSDSETRLNQMFKDRVTITVDKSTSTAYMELSSLRSEDTAVYYCAGIHDYGHGAYWGQGTLVTVSSASTKGPSVFPLAPSSKSTSGGTAALGCLVKDYFPEPVTVSWNSGALTSGVHTFPAVLQSSGLYSLSSVVTVPSSSLGTQTYICNVNHKPSNTKVDKRVEPKSCDKTHTCPPCPAPELLGGPSVFLFPPKPKDTLMISRTPEVTCVVVDVSHEDPEVKFNWYVDGVEVHNAKTKPREEQYNSTYRVVSVLTVLHQDWLNGKEYKCKVSNKALPAPIEKTISKAKGQPREPQVYTLPPSREEMTKNQVSLWCLVKGFYPSDIAVEWESNGQPENNYDTTPPVLDSDGSFFLYSDLTVDKSRWQQGNVFSCSVMHEALHNHYTQKSLSLSPGK
light: DIQMTQSPSSLSASVGDRVTITCRASENIYSNLAWYQQKPGKSPKLLVYAASHLPDGVPSRFSGSGSGTDYSLTISSLQPEDFATYYCQHFWGTPRTFGQGTKLEIKRTVAAPSVFIFPPSDEQLKSGTASVVCLLNNFYPREAKVQWKVDNALQSGNSQESVTEQDSKDSTYSLSSTLTLSKADYEKHKVYACEVTHQGLSSPVTKSFNRGEC
B2: R1086: TIGIT_VH_IL15RA (R35C)/TIGIT_VL_IL15 (E93C)/PD-L1-Fab (bispecific antibody)
chain 1: QVQLVQSGAEVKKPGSSVKVSCKASGYSFTSYWMNWVRQAPGQGLEWIGMIRPSDSETRLNQMFKDRVTITVDKSTSTAYMELSSLRSEDTAVYYCAGIHDYGHGAYWGQGTLVTVSSGGGGSGGGGSGGGGSGGGGSGITCPPPMSVEHADIWVKSYSLYSRERYICNSGFKCKAGTSSLTECVLNKATNVAHWTTPSLKCIRDPALVHQRPAPPSTVTTAGVTPQPESLSPSGKEPAASSPSSNNTAATTAAIVPGSQLMPSKSPSTGTTEISSHESSHGTPSQTTAKNWELTASASHQPPGVYPQGHSDTTEPKSSDKTHTCPPCPAPELLGGPSVFLFPPKPKDTLMISRTPEVTCVVVDVSHEDPEVKFNWYVDGVEVHNAKTKPREEQYNSTYRVVSVLTVLHQDWLNGKEYKCKVSNKALPAPIEKTISKAKGQPREPQVYTLPPSREEMTKNQVSLTCRVKGFYPSDIAVEWESNGQPENNYKTTPPVLKSDGSFFLASKLTVDKSRWQQGNVFSCSVMHEALHNHYTQKSLSLSPGK
chain 2: DIQMTQSPSSLSASVGDRVTITCRASENIYSNLAWYQQKPGKSPKLLVYAASHLPDGVPSRFSGSGSGTDYSLTISSLQPEDFATYYCQHFWGTPRTFGQGTKLEIKGGGGSGGGGSGGGGSGGGGSGNWVNVISDLKKIEDLIQSMHIDATLYTESDVHPSCKVTAMKCFLLELQVISLESGDASIHNTVQDLIILANNSLSSNGNVTESGCKECEELECKNIKEFLQSFVHIVQMFINTS
heavy: QVQLQESGPGLVKPSETLSLTCAVYGDSITSGYWNWIRKPPGKGLEYIGYISYTGSTYQNPSLKSRITMSRDTSKNQYYLKLSSVTAADTAVYYCARSRAWIRTYFDYWGQGTLVTVSSASTKGPSVFPLAPSSKSTSGGTAALGCLVKDYFPEPVTVSWNSGALTSGVHTFPAVLQSSGLYSLSSVVTVPSSSLGTQTYICNVNHKPSNTKVDKRVEPKSCDKTHTCPPCPAPELLGGPSVFLFPPKPKDTLMISRTPEVTCVVVDVSHEDPEVKFNWYVDGVEVHNAKTKPREEQYNSTYRVVSVLTVLHQDWLNGKEYKCKVSNKALPAPIEKTISKAKGQPREPQVYTLPPSREEMTKNQVSLWCLVKGFYPSDIAVEWESNGQPENNYDTTPPVLDSDGSFFLYSDLTVDKSRWQQGNVFSCSVMHEALHNHYTQKSLSLSPGK
light: DIQMTQSPSSLSASVGDRVTITCSVSSSISSSNLHWYQQKPGKAPKPWIYGTSNLASGVPSRFSGSGSGTDYTLTISSLQPEDFATYYCQQWSSYPLTFGQGTKLEIKRTVAAPSVFIFPPSDEQLKSGTASVVCLLNNFYPREAKVQWKVDNALQSGNSQESVTEQDSKDSTYSLSSTLTLSKADYEKHKVYACEVTHQGLSSPVTKSFNRGEC
B3: R1085: TIGIT_VH_IL15RA (P67C)/TIGIT_VL_IL15 (E90C)/PD-L1-Fab (bispecific antibody)
chain 1: B2 chain 1 with C174R, P206C
chain 2: B2 chain 2 with E218C, C221E
heavy: B2 heavy
light: B2 light
B4: R1081: TIGIT_VH (G44C)_IL15RA/TIGIT_VL(Q100C)_IL15/PD-L1-Fab (bispecific antibody)
chain 1: B2 chain 1 with G44C, C174R
chain 2: B2 chain 2 with Q100C, C221E
heavy: B2 heavy
light: B2 light

target: PD-L1 (on CHO-PD-L1 cells) (UniProt Q9NZQ7 19-290); assay: FACS binding; Fig. 24
Sequence (Q9NZQ7 19-290): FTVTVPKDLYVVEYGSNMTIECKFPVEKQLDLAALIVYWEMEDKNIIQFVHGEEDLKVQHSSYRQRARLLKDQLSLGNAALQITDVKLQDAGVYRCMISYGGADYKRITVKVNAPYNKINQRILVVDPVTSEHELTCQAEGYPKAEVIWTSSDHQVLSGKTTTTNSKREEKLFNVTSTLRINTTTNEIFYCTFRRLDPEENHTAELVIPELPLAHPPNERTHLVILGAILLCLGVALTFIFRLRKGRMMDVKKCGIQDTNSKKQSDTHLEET

Binder | EC50 [nM]
B1 | 5.85
B2 | 2.02
B3 | 3.2
B4 | 2.37
